# Laboratory results: article PMC12316387
# Target: gHgLgO249 complex of 131stop-gO249 virions (human cytomegalovirus, strain TB40/E)
# Test: co-IP + pull-down; gB co-precipitated with gHgLgO from 131stop and 131stop-gO249 virion lysates using anti-gH antibody 14-4b or PDGFRα-Fc; WB, ImageJ; gO precipitation levels normalized and relative gB levels determined
substance,measurement,value
glycoprotein gB of HCMV virions (natural protein),fold change of co-precipitated gB against gHgLgOWT,4 fold
